US20240026407A1, “MODIFICATION OF SAPONINS” (GLAXOSMITHKLINE BIOLOGICALS SA, priority 2020, published 2024)

Legend:
Type in all cases: biochemical, Quillaja saponaria
[1] = Experiment 4-1: screening of glucosidases for deglycosylation with purified QS-18 (0.04 mg/ml) at pH 7.5 and room temperature; conditions: pH 7.5, room temperature, 20 h, clarified E. coli lysate, QS-18 2150 to QS-21 1988 by LCMS/MS
Procedure, shortened: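 Candidate glucosidases expressed in E. coli BL21(DE3) (pET24b+, autoinduction, 20 °C for 20 h); clarified lysates in 100 mM potassium phosphate pH 7.5 incubated with QS-18 (0.04 mg/ml final) 20 h at room temperature. Quenched with MeCN, analysed by LC-MS/MS for % conversion; hits >3 S.D. above negative control.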

[2] = Experiment 4-2: screening of glucosidases for deglycosylation with purified QS-18 (1 mg/ml) at pH 6 and 30 deg C; conditions: pH 6, 30 degC, 18 hrs, clarified lysate, LCMS/MS
Procedure, shortened: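 Clarified lysates of glucosidase-expressing cells in 100 mM potassium phosphate pH 6 were incubated 18 h at 30 °C with QS-18 at 1 mg/ml final. Reactions quenched with MeCN; deglycosylation activity determined by LC-MS/MS.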

[3] = Experiment 4-3: screening of glucosidases for deglycosylation with QS-18 in crude bark extract (1 in 2000 dilution) at pH 7 and 30 deg C; conditions: CBE 1 in 2000 dilution, pH 7, 30 degC, 1 h; % conversion of QS-18 by LCMS/MS
[4] = Experiment 4-4: screening of glucosidases for deglycosylation of QS-18 in crude bark extract (1 in 20 dilution) to QS-21; conditions: CBE 1 in 20 dilution, pH 6, 25 degC, 18 hours; % conversion of Middle Peak by UV HPLC
Procedure, shortened: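 Clarified glucosidase lysates were incubated with pH 6 crude bark extract (1 in 20) in potassium phosphate buffer pH 6 for 18 h at 25 °C with shaking, then quenched with MeCN. UV HPLC with MS/MS-supported peak identity; activity is % conversion of the extract's Middle Peak (QS-18 family) toward the QS-21 peak.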

[5] = Example 8: screening of glucosidase variants for deglycosylation of saponins in crude bark extract (FIOP); conditions: screen temp 35, pH 6, lysate loading 20%, CBE loading 80%, 100 mM Potassium phosphate, Rham None
Experimental: Libraries of genetic variants encoding mutations in the wild type Modestobacter marinus glucosidase (SEQ ID No. 262) were prepared using molecular biology techniques, enzymes were prepared linked to an N-terminally located His-tag. Single monoclonal colonies were grown in 400 ul of expression medium and protein expressed. Cell pellets were lysed in 200 ul of the relevant buffer (Table 16)
Lysate was diluted appropriately in the relevant buffer to allow a lysate loading of the indicated % loading (1% loading corresponds to use of 2 ul original lysate in a 200 ul reaction). In some experiments a rhamnosidase was also present during the screening reaction (and also in controls, negating any impact on results).
Crude bark extract (CBE) obtained by aqueous extraction of Quillaja saponaria and containing at least 2.80 mg/ml QS-21 (by HPLC-UV). The pH of CBE was adjusted to pH 6 by dropwise addition of 2M NaOH with stirring. The relevant concentration of the relevant glucosidase was added. The appropriate relative volume of pH 6 CBE (160 ul (for 80%) or 150 ul (for 75%)) was added to each well of the reaction plate. The reaction plate was sealed and incubated at the relevant temperature with shaking overnight for between 18 and 22 hours.
The reaction plate was quenched by adding 200 uL of MeCN (2% AcOH, 1 mg/mL hexanophenone) to each well of the plates. The quenched reaction plate was re-sealed and incubated at 20 deg C. with shaking for 10 min. The reaction plate was then centrifuged (10 min, 4 degC).
200 uL was transferred from each well of the quenched plate to the corresponding wells of a fresh 96 well plate and sealed. The plate was analysed by UV HPLC with the method below:
A negative control (a lysate not expressing test enzymes) and a positive control (expressing the parent comparator—wild type or previous variant as appropriate). Fold improvement over parent (FIOP) for the glucosidase (shorter method) is calculated as follows:
% right peak=100*right peak area/(right peak area+left peak area)
Average % right peak area is calculated for negative controls (per plate) and subtracted from all wells to give the increase in % right peak for each well above average negative control Average increase in % right peak is calculated for positive controls per plate
FIOP=observed increase in % right peak divided by average positive control increase

[6] = Example 10: deglucosylation of saponins in crude bark extract (50%) using WT and engineered glucosidases G1 to G5; conditions: 7 h, 50% CBE, 35 degC; for % Right Peak: starting CBE 26; for % Left Peak: starting CBE 30; for % Middle Peak: starting CBE 44
Experimental: Lyophilised powders from clarified cell lysate expressing glucosidases (from Example 8 WT glucosidase and engineered glucosidase polypeptides G1 to G5) and rhamnosidases (from Example 9 WT rhamnosidase and engineered rhamnosidase polypeptides R1 to R5) were dissolved in 200 mM sodium acetate aqueous solution at pH 5.8 to prepare the enzyme solutions at 4 fold the final reaction concentration as shown in Tables 19 and 20.
Each glucosidase solution was combined with an equal volume of 200 mM sodium acetate aqueous solution at pH 5.8 and separately with an equal volume of 200 mM sodium acetate aqueous solution at pH 5.8 containing 2 mg/ml rhamnosidase R5. This is a sufficient loading of rhamnosidase to effect complete hydrolysis of the relevant rhamnose moiety within 4 hours.
CBE was adjusted to pH of 6.0 to 6.2 with 2M sodium hydroxide and an equal volume added to the enzyme solution to prepare the reaction mix (i.e. 50% CBE concentration in reaction mix) and the concentration of glucosidase and/or rhamnosidase is shown in Tables 19 and 20. The reaction mix was heated to 35 degC for the time indicated in Tables 19 and 20, after which the reaction was quenched by addition of an equal volume of MeCN containing 2% acetic acid and shaken at room temperature for 10 mins prior to centrifugation (10 min, 4 degC) to remove particulates. Samples were analysed by UV HPLC using method of Experiment 4-4.
The change in composition of the Left, Middle and Right peaks is shown in Tables 19 and 20. The composition changes by the action of the enzymes depending on the presence or absence of the partner enzyme. The extent of reaction is proportional to the enzyme concentration and the reaction time under these conditions. The tables show data for enzyme concentrations and the reaction times providing for equivalent extents of reaction. The improvement resulting from the mutations introduced for each variant is equal to the fold change in enzyme concentration×time (i.e. fold improvement=(enzyme concentration×time) for preceding variant÷(enzyme concentration×time) for later variant). A cumulative fold improvement over the original enzyme variant is calculated by the product of the individual fold improvements.

[7] = glucosidase 6.25 mg/ml + rhamnosidase R5 0.5 mg/ml
[8] = glucosidase 6.25 mg/ml, no rhamnosidase

B1: 101 (protein, listed as Meira miltonrushii)
chain: MSAPIDPQALLAQLTLEEKIQLTAGADLWRTVAIERLKIPYIKLTDGPIGARGGGDFHDSTPSTLFPSPSCLGSTWDTKLAYEMGKQIALDGIEKQCHVILGPTINGQRDPRAGRFFESYSEDPTLMGFLASHWVQGVQSCGVGATMKHFVANEAEYDRRNNSSDVSIEALREVYLEPFRIIMADMQRKASAHDDPFKFQPACVMTAYNRVNGVSSSENDAMITDILRKEWGFDGLVMSDWFAMHANAFNATDLEMPGPTIFRTIEKTIDTIKKGDEEGKKMAKDLDRCVLKVLELVKKVHKLGYQKSVADEVEKSVPIEQVGPAIRKIGAEGAVLLKNDNDILPIIPKKDLKILCVGAPWIEAVQSGGGSANLTPQKVMQPLSTFKDALKNEKGGQDVTVNHHNGIGIHNFVKPLEQSIKLDFLTGRQPGKGEVVASTTGQKATLSTMLPKPKEVPWNDYWVRGSLDLEPVKKDCQLRFGLLGLGTITAYLTIDGDKSKQSIWNFDGETDLFESIVNPLRNWQENVITVKAGQKIQIEAHFVPRLVGKEHGDAKYGGFQIGMEEVDDEDALIAEAVQQAKEADLTVIMTAVGKDWESEGFDRPTIFLPRRQDDLVNQVTKACPGKTVILNLTGSVVEMPWRNDATGIVQCWYGGQEGAVSLSDILLGRGDAPASGRLAHVWPARIEDHPSGVDEAYFPGTHLPNDKEGPHTEYVEGRLVGYKYYNKNKNANQPAFHFGEGLGGYTTFATEGPVVKGSTKINKSSLPLSLTVKSTNKGKRSGKEVAQIYLRPHVPLSDAKDEPIQRLAGFAILRPAPGQSEEAEIQLYQETFSHWDEKSRSWQVKQGDYDLVLARSARYGEELGKATITIDQSWSWTGTGVN
[1]
  Expt 4-1 % conv: 28.2%
[2]
  Expt 4-2 % conv: 1.0%
[3]
  Expt 4-3 % conv: 1.8%
[4]
  Expt 4-4 % conv: <3%

B2: Variant G1: engineered glucosidase polypeptide, variant of Modestobacter marinus glucosidase SEQ ID No. 262 (protein)
chain: MNPASSTRTDTMTDTTARTDSRLTDALAALSLEQKVQLLTGRDFWNTWPIEEIGLRRILVSDGPSGVRGEVWDERDPSLNLPSATALASAWDPDIARRYGAAAAVEARRKGVDVVLGPTINLHRSPLGGRHFEAFSEDPVLTAELAAAYVTGVQDNGVGATPKHYVANDFETDRFTVDVRADERTLRELYLLAFEKAVTEARAWLVMSAYNGINGATATENDLLETPLNSEWGFDGVVVSDWTAVRSLESARSSQDLVMPGPVGPWGDALVEAVRTGAIDESVVDRKVLRILTLAQRVGALEGSPAIDPVWVEDGVALAREAAVEGTVLLENRDELPWDATSLRKVAVIGNNAAAARTQGGGSANVLPEYTVSPLDGVRAALPDAEVSYSLGAVVQDGLVELPLAELTNPVTGGPGLRARFLTADGAELFGEDRRKSVLVYFGGDAPIAAAATYELTARWTPTESQTVRLGFALIGAAQLYVDGELLVESDLQPSGTDLGAAFMNPLTASAEVELVAGKPVDVRLVHDLSAKEGFAAHALFLQLGTEPAEVDEDALIAEAAEAAEAADVVLVVVGTNSIVESEGYDRESLSLPGRQDDLVRAVVAANPRTVVLVNAGAPVLLPWRDDVAALLLGWFGGQEFGNAVADVLLGVAEPGGRLPTTWPAAEADVPVLSCTPVDGVVEYTEGIHIGYRAWLRSGATPAYWFGSGQGYTCVELTGVEAPSRARPGEIVTVSVEVANRGERDGKQVVQVYAEKPDSTVDRPVRWLVGSAPVRVPAGQTAQVEVAVPTRYLAHWAGGWQYEPGVYRLRVGTTAVELPLETTLEVSA
modifications: Seq ID No. 262 with mutation T365N
[5]; estimate
  Cumulative FIOP (cf WT): 5
[5]; fold improvement over parent
  FIOP: 5
[6]; [7]
  % change in Left Peak: −39%
  % change in Middle Peak: −64%
  % change in Right Peak: 253%
  Cumulative Fold improvement in primary enzyme loading × time: 8
  Fold improvement in primary enzyme loading × time: 8.0
  % Right Peak: 66%
  % Left Peak: 18%
  % Middle Peak: 16%
[6]; [8]
  % change in Left Peak: −8%
  % change in Middle Peak: −59%
  % change in Right Peak: 209%
  Cumulative Fold improvement in primary enzyme loading × time: 8
  Fold improvement in primary enzyme loading × time: 8.0
  % Right Peak: 54%
  % Left Peak: 28%
  % Middle Peak: 18%

B3: 5 (protein, listed as Actinobacteria bacterium)
chain: MSELVENLILRLTLEEKATLTSGTDMWNAHGIDRLGIPGLKVSDGPVGVRGERWVGTTSACTPCGTALGATWNMELIEQVGVVLGEEAKSKSVDIVLAPTVNLHRNPLAGRNFECFSEDPFLTGLAATAIINGIQSAGVGACVKHFVANDSEYQRHTISSQVSERVLRELYLLPFEMVIRDTDVVAVMSGYNRLNGTYCAEHDWLLNQILKQEWGFDGLVMSDWWGTMSSASAAGGLDLEMPGPAKYLGPQLAQMVADGTLDATALDEMARRILHVSERLGLLAHSSPATPSRAAERSEDLPTHQAILRSAAEQAVVLLTNRLIEGQTVLPLDVSSLRHVAVIGPSADTAAVLGGGSAAVNPHYAVSILQGLQEALPSHVKVTHEIGVHASHSAPPIDSRCLRSAVQPDKPGLDVEYFANREFAGTPACVEHAAQPRLVWMGSEAASGVATNNLSVRVSGTFIARSTGTHTFALVTGGTGGRVLLDGESILDNYTGQESGTAFFGLGSSEILAEVYLEQGEERGIIGEFTGYEGMDVAAFLIGHREPLAADGIERAAKAAAEAEVAIVVVGLDQDSETEGEDRKTISLPGEQDALLRAVIAANPRTVVLVNAGSVVDLAATEGAAAIAQTWYLGQETGNAVAAVLTGSVDPSGRLPTTFGKKVQDWSSHLNYPGEFGEVLYGEELFMGYRGFDQQQIEPAFCFGHGLSYTSFDWSGATLSTSSLSQTELLDGAQFSLSAEVTNTGDTSGYEVLQCYVQRDQSQSGRPEQELCGFVKVHLSPGQTATVNIPLNFRSCAVWDQPSRSWLVHPGEIKFRLSSSSRDTRSTAAFQVTT
[1]
  Expt 4-1 % conv: 70.8%
[2]
  Expt 4-2 % conv: 16.6%
[3]
  Expt 4-3 % conv: 1.4%
[4]
  Expt 4-4 % conv: <3%
